Values quoted from earlier work, collected in publication PMC3485249.
pKd: −log10 of the molar value.

Molecular target: Pygopus PHD PHD (Homo sapiens) (UniProt Q9Y3Y4)

Substance: Pygopus PHD PHD (from UniProt Q9Y3Y4)
- pKd: 6.00
